For one data set, the target named is T1, DnaD-Cd206 (Bacillus subtilis, UniProt P39787 129-206).
T1 sequence: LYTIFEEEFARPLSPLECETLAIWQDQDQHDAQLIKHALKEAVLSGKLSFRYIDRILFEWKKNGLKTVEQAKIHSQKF
In words: NMR.

In the next data set the target is T2, DnaD-Cd (DnaD-Cd232) (Bacillus subtilis, UniProt P39787 129-232).
T2 sequence: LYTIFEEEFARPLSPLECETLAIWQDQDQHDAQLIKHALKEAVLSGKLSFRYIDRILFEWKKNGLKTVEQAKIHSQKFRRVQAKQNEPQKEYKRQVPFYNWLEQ
Briefly: NMR.

Data set [1] has as its target T3, DnaD-Cd196 (Bacillus subtilis, UniProt P39787 129-196).
T3 sequence: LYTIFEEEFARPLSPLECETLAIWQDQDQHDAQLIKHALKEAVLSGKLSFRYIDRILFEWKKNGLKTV
In words: NMR.

The target in another data set is T4, DnaD-Cd215 (Bacillus subtilis, UniProt P39787 129-215).
T4 sequence: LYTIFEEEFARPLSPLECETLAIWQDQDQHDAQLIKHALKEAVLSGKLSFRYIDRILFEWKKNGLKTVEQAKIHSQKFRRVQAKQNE
In words: NMR.

In data set [2] the target is T3, DnaD-Cd196. Briefly: EMSA. (In general: Mobility shift assays separate free from complexed probe on a gel.)

B1: 10-mer ssDNA (ssDNA)
DNA: GTTATTGCTC
For B1, the binding result with DnaD-Cd206 is reported as “no binding”; in the data set with DnaD-Cd (DnaD-Cd232), “binds”; with DnaD-Cd196 [1], “no binding”; in the data set with DnaD-Cd215, “binds”.

B2: Y180AF ss probe (ssDNA)
DNA: CTCAGTTTCCGCGCGATTGACCGGATT
For the molecule B2, in the data set with DnaD-Cd196 [2], the binding result was “no binding”.

(Values after publication PMC2978336.)
